This series deals with the molecule itself. As to the kind of experiment: thioflavin T fluorescence + atomi.

B1: Ure2 (yeast prion protein Ure2, Saccharomyces cerevisiae) (natural protein, UniProt P23202 1-354, looked up)
chain: MMNNNGNQVSNLSNALRQVNIGNRNSNTTTDQSNINFEFSTGVNNNNNNNSSSNNNNVQNNNSGRNGSQNNDNENNIKNTLEQHRQQQQAFSDMSHVEYSRITKFFQEQPLEGYTLFSHRSAPNGFKVAIVLSELGFHYNTIFLDFNLGEHRAPEFVSVNPNARVPALIDHGMDNLSIWESGAILLHLVNKYYKETGNPLLWSDDLADQSQINAWLFFQTSGHAPMIGQALHFRYFHSQKIASAVERYTDEVRRVYGVVEMALAERREALVMELDTENAAAYSAGTTPMSQSRFFDYPVWLVGDKLTIADLAFVPWNNVVDRIGINIKIEFPEVYKWTKHMMRRPAVIKALRGE
notes: Ure2, Saccharomyces cerevisiae; the introduction describes it as a 354-amino acid homodimeric protein; It starts as the native dimer and assembles into protofibrils and mature fibrils on incubation at 4°C; also called WT Ure2; native Ure2; source: Escherichia coli, purified under native conditions
B1: the binding result is listed as “binds”.

For the origin of these results see publication PMC2932714 (PLoS ONE, 2010).
